Assay results reported in patent publication US20120045393A1 (priority 2009, published 2012).
Non-standard residues stand in square brackets, D forms with d. Residues, ends and D or L forms follow the SMILES beside them. Primed or numbered codes have the meaning given here. *: point of attachment. DO3A10CM(3) = metal chelator group attached at the N-terminus (X in table rows); DO3A10CM″ = chelating group at the N-terminus (X in the sequence tables); DOTA = O=C(O)CN1CCN(CC(=O)O)CCN(CC(=O)*)CCN(CC(=O)O)CC1; Bpa = N[C@@H](Cc1ccc(C(=O)c2ccccc2)cc1)C(=O)O; Ala(4-thiazolyl) = N[C@@H](Cc1cscn1)C(=O)O; d2Nal = N[C@H](Cc1ccc2ccccc2c1)C(=O)O; d3Pal = N[C@H](Cc1cccnc1)C(=O)O; DO3A10CM = not defined here; Nicotinoyl = O=C(c1cccnc1)*; Apgly = not defined here; Bugly = not defined here; Cegly = not defined here; Etgly = not defined here; Hegly = not defined here; Ipgly = not defined here; Mpgly = not defined here; Prgly = not defined here; Btd = not defined here; azaGly = NNC(=O)O; Sar = CNCC(=O)O

system: LHRH binding sites on human ovarian cancer cells (EFO-27); test: not given; details: not given;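 also: Cell-associated radioactivity on confluent EFO-27 monolayers in 96-well plates, measured by microplate scintillation counting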

Molecule	EC50 [nM]
N=C(N)NCCC[C@H](NC(=O)[C@@H](Cc1ccc2ccccc2c1)NC(=O)CN1CCN(CC(=O)O)CCN(CC(=O)O)CCN(CC(=O)O)CC1)C(=O)N[C@@H](Cc1c[nH]c2ccccc12)C(=O)N[C@@H](CO)C(=O)N[C@@H](Cc1c[nH]cn1)C(=O)N[C@H](CCCNC(=N)N)C(=O)N[C@@H](Cc1c[nH]c2ccccc12)C(=O)N[C@@H](Cc1ccc(C(=O)c2ccccc2)cc1)C(=O)N1CCC[C@H]1C(=O)NC(=N)N [compound 2984]	400
CNCC(=O)N[C@@H](Cc1c[nH]cn1)C(=O)N[C@@H](Cc1c[nH]c2ccccc12)C(=O)N[C@@H](CO)C(=O)N[C@@H](Cc1c[nH]cn1)C(=O)N[C@H](CCCNC(=N)N)C(=O)N[C@@H](Cc1c[nH]c2ccccc12)C(=O)N[C@@H](Cc1ccc(C(=O)c2ccccc2)cc1)C(=O)N1CCC[C@H]1C(=O)NCCNC(=O)CN1CCN(CC(=O)O)CCN(CC(=O)O)CCN(CC(=O)O)CC1 [compound 3079]	590 ± 260
CN(CC(=O)N[C@@H](Cc1cscn1)C(=O)N[C@@H](Cc1c[nH]c2ccccc12)C(=O)N[C@@H](CO)C(=O)N[C@@H](Cc1c[nH]cn1)C(=O)N[C@H](CCCNC(=N)N)C(=O)N[C@@H](Cc1c[nH]c2ccccc12)C(=O)N[C@@H](Cc1ccc(C(=O)c2ccccc2)cc1)C(=O)N1CCC[C@H]1C(=O)NNC(N)=O)C(=O)CN1CCN(CC(=O)O)CCN(CC(=O)O)CCN(CC(=O)O)CC1 [BRU-2768] ({DOTA}-[Sar][Ala(4-thiazolyl)]WSH[dR]W[Bpa]P[azaGly]-NH2)	12800
N=C(N)NCCC[C@H](NC(=O)[C@@H](Cc1ccc2ccccc2c1)NC(=O)CN1CCN(CC(=O)O)CCN(CC(=O)O)CCN(CC(=O)O)CC1)C(=O)N[C@@H](Cc1c[nH]c2ccccc12)C(=O)N[C@@H](CO)C(=O)N[C@@H](Cc1c[nH]cn1)C(=O)N[C@H](CCCNC(=N)N)C(=O)N[C@@H](Cc1c[nH]c2ccccc12)C(=O)N[C@@H](Cc1ccc(C(=O)c2ccccc2)cc1)C(=O)N1CCC[C@H]1C(=O)NNC(=O)NCCOCCN [compound 3022]	710
CNCC(=O)N[C@@H](CCCNC(=N)N)C(=O)N[C@@H](Cc1c[nH]c2ccccc12)C(=O)N[C@@H](CO)C(=O)N[C@@H](Cc1c[nH]cn1)C(=O)N[C@H](CCCNC(=N)N)C(=O)N[C@@H](Cc1c[nH]c2ccccc12)C(=O)N[C@@H](Cc1ccc(C(=O)c2ccccc2)cc1)C(=O)N1CCC[C@H]1C(=O)NCc1cccc(CNC(=O)CN2CCN(CC(=O)O)CCN(CC(=O)O)CCN(CC(=O)O)CC2)n1 [compound 3080]	230 ± 100
C[C@H](NC(=O)[C@H](CO)NC(=O)[C@H](Cc1c[nH]c2ccccc12)NC(=O)[C@H](CCCNC(=N)N)NC(=O)[C@@H](Cc1ccc2ccccc2c1)NC(=O)CN1CCN(CC(=O)O)CCN(CC(=O)O)CCN(CC(=O)O)CC1)C(=O)N[C@H](CCCNC(=N)N)C(=O)N[C@@H](Cc1c[nH]c2ccccc12)C(=O)N[C@@H](Cc1ccc(C(=O)c2ccccc2)cc1)C(=O)N1CCC[C@H]1C(=O)NNC(N)=O [compound 3028] ({DOTA}-[d2Nal]RWSA[dR]W[Bpa]P[azaGly]-NH2)	1090
CN(CC(=O)N[C@@H](Cc1c[nH]cn1)C(=O)N[C@@H](Cc1c[nH]c2ccccc12)C(=O)N[C@@H](CO)C(=O)N[C@@H](Cc1c[nH]cn1)C(=O)N[C@H](CCCNC(=N)N)C(=O)N[C@@H](Cc1c[nH]c2ccccc12)C(=O)N[C@@H](Cc1cccc2ccccc12)C(=O)N1CCC[C@H]1C(=O)NNC(N)=O)C(=O)CN1CCN(CC(=O)O)CCN(CC(=O)O)CCN(CC(=O)O)CC1 [BRU-2720]	540

same assay, conditions: Table 5: modifications of amino acids at positions 1 and 2; in vitro binding on EFO-27 cells

Molecule	EC50 [nM]
N=C(N)NCCC[C@@H](NC(=O)[C@H](Cc1c[nH]cn1)NC(=O)[C@H](CO)NC(=O)[C@H](Cc1c[nH]c2ccccc12)NC(=O)[C@H](Cc1c[nH]cn1)NC(=O)[C@@H]1CCCN1C(=O)CNC(=O)CN1CCN(CC(=O)O)CCN(CC(=O)O)CCN(CC(=O)O)CC1)C(=O)N[C@@H](Cc1c[nH]c2ccccc12)C(=O)N[C@@H](Cc1ccc(C(=O)c2ccccc2)cc1)C(=O)N1CCC[C@H]1C(=O)NNC(N)=O [BRU-2667] ({DOTA}-GPHWSH[dR]W[Bpa]P[azaGly]-NH2)	7290

target: LHRH binding sites on EFO-27 human ovarian cancer cells (human); test: competition with [125I-Tyr8]BRU-2477 on EFO-27 cells; details: not given

Molecule	EC50 [nM]	times lower binding than BRU-2443 [times]	times lesser binding efficacy than BRU-2443 [times]
XHWSHXWXPX (DO3A10CM on N-terminus; AA1 Sar; AA6 Dcit; AA8 Bpa4; AA10 azaGly-NH2) [BRU-2729]	14200	15	
DO3A10CM-[Sar]HWSH[dW]W[Bpa]P[azaGly]-NH2 (reading uncertain) [BRU-2731]	1360		
DO3A10CM-G[Mpgly]HWSH[dR]W[Bpa]P[azaGly]-NH2 (reading uncertain) [BRU-2793]	1340		
XRWSHXWXP (not fully specified; DO3A10CM on N-terminus; AA1 Dnal2 (Table 6; Sar in paragraph 138); AA6 Darg; AA8 Bpa4; AA10 Az23po-Da15o3pt) [BRU-3022]	710		
XHWSHXWXPX (DO3A10CM on N-terminus; AA1 Sar; AA6 Darg; AA8 Lys(isp); AA10 azaGly-NH2) [BRU-2675]	12300		
XHWSHXWXPX (DO3A10CM on N-terminus; AA1 Sar; AA6 Darg; AA8 Tbufe4; AA10 azaGly-NH2) [BRU-2634]	980		
XHWSHXWXPX (DO3A10CM on N-terminus; AA1 Sar; AA6 Darg; AA8 Bip; AA10 azaGly-NH2) [BRU-2625]	2140		
DO3A10CM-G[Ipgly]HWSH[dR]W[Bpa]P[azaGly]-NH2 (reading uncertain) [BRU-2790]	3300		
DO3A10CM-G[Prgly]HWSH[dR]W[Bpa]P[azaGly]-NH2 (reading uncertain) [BRU-2794]	1300		
XRWSHXWXP (DO3A10CM on N-terminus; AA1 Dnal2; AA6 Darg; AA8 Bpa4; AA10 Aeh2 (aminoethanol; printed Ach2 in paragraph 138)) [BRU-2970]	510		
{DO3A10CM(3)}-[Sar]HWSH[dK](Nicotinoyl)WYP[azaGly]-NH2 [BRU-2674]	22600		
XRWSHXWXPG (DO3A10CM on N-terminus; AA1 Dnal2; AA6 Darg; AA8 Bpa4; C-terminal Gly-Az23(py2)2po-Ap) [BRU-2989]	1130		
XRWSHXWXP (DO3A10CM on N-terminus; AA1 Dnal2; AA6 Darg; AA8 Bpa4; AA10 Ae (aminoethane)) [BRU-2981]	970		
{DO3A10CM(3)}-[Sar]HWSH[dA]W[Bpa]P[azaGly]-NH2 [BRU-2672]	14000		
DO3A10CM-G[Apgly]HWSHRW[Bpa]P[azaGly]-NH2 (not fully specified (residue 7); reading uncertain; also: AA6 Darg prints R) [BRU-2874]	1970		
XRWSHXWXPG (DO3A10CM on N-terminus; AA1 Dnal2; AA6 Darg; AA8 Bpa4; C-terminal Gly-Aprp1h3) [BRU-2987]	2300		

Molecule	EC50 [nM]	times lower binding than BRU-2443 [times]	times lesser binding efficacy than BRU-2443 [times]
XHWSHXWXPX (DO3A10CM on N-terminus; AA1 Sar; AA6 Dharg; AA8 Bpa4; AA10 azaGly-NH2) [BRU-2893]	2600	2.7	
XRWSHXWXPGX (DO3A10CM on N-terminus; AA1 Dnal2; AA6 Darg; AA8 Bpa4; AA10 Gly-NH2 (amide)) [BRU-3005]	660		
DO3A10CM-[Sar]HWSH[Btd]W[Bpa]P[azaGly]-NH2 (reading uncertain) [BRU-3000]	4230		4.5
DO3A10CM-G[Cegly]HWSHRW[Bpa]P[azaGly]-NH2 (not fully specified (residue 7); reading uncertain; also: AA6 Darg prints R) [BRU-2875]	8700		
{DO3A10CM″}-G[Mephe]HWSHRW[Bpa]P[azaGly]-NH2 (not fully specified (residue 7)) [BRU-2755]	1290		
{DO3A10CM(3)}-[Sar]HWSH[d3Pal]W[Bpa]P[azaGly]-NH2 [BRU-2673]	12300		
DO3A10CM-[d2Nal]RWSH[dR]W[Bpa]PGF-NH2 (reading uncertain) [BRU-2980]	970		
XRWSHXWXP (not fully specified; DO3A10CM on N-terminus; AA1 Dnal2 (Table 6; Sar in paragraph 138); AA6 Darg; AA8 Bpa4; AA10 Az23po-Dabt14) [BRU-3019]	900		
DO3A10CM-G[Hegly]HWSHRW[Bpa]P[azaGly]-NH2 (reading uncertain; also: AA6 Darg prints R) [BRU-2873]	1330		
DO3A10CM-G[Etgly]HWSH[dR]W[Bpa]P[azaGly]-NH2 (reading uncertain) [BRU-2789]	5120		
DO3A10CM-G[Bugly]HWSH[dR]W[Bpa]P[azaGly]-NH2 (reading uncertain) [BRU-2791]	4030		
{DO3A10CM″}-[Sar]HWSH[dS]W[Bpa]P[azaGly]-NH2 [BRU-2761]	13600		
XRWSHXWXP (DO3A10CM on N-terminus; AA1 Dnal2; AA6 Darg; AA8 Bpa4; AA10 Aprp1h3) [BRU-2982]	1130		
{DO3A10CM(3)}-[Sar]HWSH[dK](Nicotinoyl)W[Bpa]P[azaGly]-NH2 [BRU-2671]	7200		
XHWSHXWYPX (HELM PEPTIDE1{[Glp].H.W.S.H.[dK].W.Y.P.[O=C(NN[*:1])[*:2]].[am]}$$$$V2.0; SMILES NCCCC[C@@H](NC(=O)[C@H](Cc1c[nH]cn1)NC(=O)[C@H](CO)NC(=O)[C@H](Cc1c[nH]c2ccccc12)NC(=O)[C@H](Cc1c[nH]cn1)NC(=O)[C@@H]1CCC(=O)N1)C(=O)N[C@@H](Cc1c[nH]c2ccccc12)C(=O)N[C@@H](Cc1ccc(O)cc1)C(=O)N1CCC[C@H]1C(=O)NNC(N)=O) [BRU-2437]	8540		
DO3A10CM-G[Chgly]HWSHRW[Bpa]P[azaGly]-NH2 (reading uncertain; also: AA6 Darg prints R) [BRU-2872]	2900		
